The assay addresses TRPM8-mTurquoise2 (human) (UniProt Q7Z2W7). As to the kind of experiment: FRET or BRET.

This note sets out measurements from paper PMC4284226.

Sequence of UniProt Q7Z2W7 (Q7Z2W7 2-1104): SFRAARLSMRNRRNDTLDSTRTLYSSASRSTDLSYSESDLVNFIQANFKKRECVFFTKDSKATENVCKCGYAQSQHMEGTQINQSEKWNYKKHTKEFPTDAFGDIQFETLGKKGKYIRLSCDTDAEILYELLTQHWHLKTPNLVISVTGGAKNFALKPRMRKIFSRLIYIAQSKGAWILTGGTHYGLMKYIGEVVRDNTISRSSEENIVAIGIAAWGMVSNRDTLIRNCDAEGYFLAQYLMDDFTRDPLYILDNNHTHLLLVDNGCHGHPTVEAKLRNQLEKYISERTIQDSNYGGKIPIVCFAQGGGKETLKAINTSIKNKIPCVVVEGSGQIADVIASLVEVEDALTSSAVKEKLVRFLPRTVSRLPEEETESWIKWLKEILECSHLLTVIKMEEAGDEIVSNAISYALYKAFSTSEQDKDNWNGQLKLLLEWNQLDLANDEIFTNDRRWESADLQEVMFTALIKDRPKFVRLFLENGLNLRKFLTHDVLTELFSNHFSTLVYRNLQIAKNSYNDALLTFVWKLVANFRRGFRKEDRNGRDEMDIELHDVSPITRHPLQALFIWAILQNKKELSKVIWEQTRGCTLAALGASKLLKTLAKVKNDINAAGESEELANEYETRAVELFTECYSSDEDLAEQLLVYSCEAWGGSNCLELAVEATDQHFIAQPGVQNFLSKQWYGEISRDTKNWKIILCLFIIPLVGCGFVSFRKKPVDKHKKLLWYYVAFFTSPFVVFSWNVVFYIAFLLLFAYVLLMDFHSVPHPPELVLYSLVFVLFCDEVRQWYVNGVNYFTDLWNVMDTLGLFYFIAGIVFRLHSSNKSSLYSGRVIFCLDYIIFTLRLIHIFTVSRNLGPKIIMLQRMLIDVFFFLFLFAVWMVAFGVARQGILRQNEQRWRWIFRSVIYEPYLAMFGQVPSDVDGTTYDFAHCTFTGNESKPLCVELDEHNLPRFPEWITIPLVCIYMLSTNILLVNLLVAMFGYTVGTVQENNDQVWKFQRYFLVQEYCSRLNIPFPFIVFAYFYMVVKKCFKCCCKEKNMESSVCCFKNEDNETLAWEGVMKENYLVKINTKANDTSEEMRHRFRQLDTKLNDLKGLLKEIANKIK

The substance free SYFP2 protein registered an E FRET of less than 1%.
